Experiment [1] addresses HLA-A*01:01. Kind of experiment: IEDB peptide-MHC binding, purified MHC/competitive/radioactivity; filed as Kd, often an IC50 or EC50 that approximates it; ≥ and ≤ were set here for values at or beyond the usual limits of such assays.
The target in the next experiment is HLA-A*23:01. The experiment is described as above.
The target in a further experiment is HLA-A*24:02. Described as above.
Another experiment deals with HLA-A*26:01. The description is as above.
For the next experiment, the target named is HLA-A*29:02. The experiment is described as above.
The target in the next experiment is HLA-A*30:02. Described as above.
The target in a further experiment is HLA-A*02:02. Described as above. Particulars: source organism: SARS coronavirus Tor2.
The target of the next experiment is HLA-A*02:03. The description is as above. Particulars: source organism: SARS coronavirus Tor2.
A further experiment addresses HLA-A*02:06. The description is as above. Particulars: source organism: SARS coronavirus Tor2.
The target in a further experiment is HLA-B*51:01. Described as above. Particulars: source organism: Dengue virus 1 Brazil/97-11/1997.
A further experiment has as its target HLA-A*03:01. Described as above. Particulars: source organism: Triticum aestivum.
For experiment [2], the target named is HLA-A*11:01. The description is as above. Particulars: source organism: Triticum aestivum.
A further experiment concerns the target HLA-A*31:01. The description is as above. The conditions noted are these: source organism: Triticum aestivum.
Another experiment has as its target HLA-A*33:01. The description is as above. Particulars: source organism: Triticum aestivum.
In another experiment the target is HLA-A*68:01. The experiment is described as above. The conditions noted are these: source organism: Triticum aestivum.
In experiment [3] the target is HLA-A*01:01. Kind of experiment: IEDB peptide-MHC binding, purified MHC/direct/fluorescence; filed as Kd, often an IC50 or EC50 that approximates it; ≥ and ≤ were set here for values at or beyond the usual limits of such assays. Particulars: source organism: SARS-CoV1.
Experiment [4] addresses HLA-A*11:01. Described as above. Particulars: source organism: SARS-CoV1.
Setting [5] is: source organism: SARS coronavirus Tor2.
Setting [6] is: source organism: Triticum aestivum.
[7] abbreviates: source organism: Lymphocytic choriomeningitis virus (strain Armstrong).
[8] abbreviates: source organism: Mammarenavirus brazilense.
[9] abbreviates: source organism: Mammarenavirus guanaritoense.

The term Kd denotes the free concentration of one partner at which half of the binding sites on the other are occupied at equilibrium, for simple one-to-one binding. For VWTLMNVITL, the Kd in the experiment with HLA-A*01:01 [1] (setting [5]) is 2.72 µM; in the experiment with HLA-A*23:01 (setting [5]), 0.0622 µM; with HLA-A*24:02 (setting [5]), 0.188 µM; in the experiment with HLA-A*26:01 (setting [5]) it was 1.5 µM; with HLA-A*29:02 (setting [5]), 0.0721 µM; in the experiment with HLA-A*30:02 (setting [5]), 19.4 µM.

Consider CYGVSATKL, for which the equilibrium dissociation constant (Kd) with HLA-A*01:01 [1] (setting [5]) was no less than 78.1 µM; in the experiment with HLA-A*23:01 (setting [5]), 12 µM; with HLA-A*24:02 (setting [5]), no less than 34.3 µM; in the experiment with HLA-A*26:01 (setting [5]), no less than 77.9 µM; in the experiment with HLA-A*29:02 (setting [5]), 12.2 µM; in the experiment with HLA-A*30:02 (setting [5]) it was no less than 81.1 µM.

YQCGHYTHI: the Kd with HLA-A*01:01 [1] (setting [5]) was no less than 20.1 µM; with HLA-A*02:02 it was 0.0721 µM; with HLA-A*02:03, 0.0149 µM; in the experiment with HLA-A*02:06, 0.00923 µM; with HLA-A*23:01 (setting [5]) it was 0.312 µM; with HLA-A*24:02 (setting [5]), 0.116 µM. In addition, the Kd is 13.3 µM with HLA-A*26:01 (setting [5]), no less than 25 µM in the experiment with HLA-A*29:02 (setting [5]) and 10.9 µM with HLA-A*30:02 (setting [5]).

WPLNEGIMAI: the Kd with HLA-B*51:01 stood at 0.186 µM.

For the sequence AMCNVYIPPY, the Kd with HLA-A*01:01 [1] (setting [6]) is 0.0835 µM; with HLA-A*03:01 it was 0.152 µM; with HLA-A*11:01 [2], 0.136 µM; with HLA-A*23:01 (setting [6]) it was 11.5 µM; in the experiment with HLA-A*24:02 (setting [6]), no less than 28.3 µM; with HLA-A*26:01 (setting [6]), 0.854 µM. For the same sequence, the equilibrium dissociation constant (Kd) in the experiment with HLA-A*29:02 (setting [6]) came out at 0.013 µM; with HLA-A*30:02 (setting [6]), 0.874 µM; with HLA-A*31:01, 0.224 µM; with HLA-A*33:01 it was 2.6 µM; in the experiment with HLA-A*68:01 it was 0.921 µM.

As for QSDTVFDHY, the Kd with HLA-A*01:01 [1] (source organism: Variola virus) was 0.0095 µM; with HLA-A*23:01 (source organism: Variola virus), no less than 77.7 µM; with HLA-A*24:02 (source organism: Variola virus) it was no less than 77.5 µM; in the experiment with HLA-A*26:01 (source organism: Variola virus) it was no less than 77.9 µM; in the experiment with HLA-A*29:02 (source organism: Variola virus), no less than 38 µM; in the experiment with HLA-A*30:02 (source organism: Variola virus), 11.9 µM.

With SFYADPKRFF, the Kd in the experiment with HLA-A*23:01 (setting [7]) is 0.126 µM; with HLA-A*24:02 (setting [7]) it was 0.709 µM; with HLA-A*29:02 (setting [7]), 0.0444 µM.

As to ISMMGFKMNY, the Kd with HLA-A*01:01 [1] (setting [5]) was 0.422 µM; in the experiment with HLA-A*23:01 (setting [5]) it was no less than 31 µM; with HLA-A*24:02 (setting [5]), no less than 70.3 µM; with HLA-A*26:01 (setting [5]) it was 5.45 µM; with HLA-A*29:02 (setting [5]), 0.0334 µM; with HLA-A*30:02 (setting [5]), 0.00425 µM.

For QFLYLYALI, the Kd with HLA-A*01:01 [1] (setting [5]) was 2.32 µM; with HLA-A*23:01 (setting [5]), 0.000117 µM; in the experiment with HLA-A*24:02 (setting [5]), 0.0261 µM; with HLA-A*26:01 (setting [5]), 10.1 µM; in the experiment with HLA-A*29:02 (setting [5]) it was 0.0641 µM; in the experiment with HLA-A*30:02 (setting [5]) it was no less than 26.7 µM.

As for LYTVKFPNLI, the values for the Kd with HLA-A*23:01 (setting [8]), with HLA-A*24:02 (setting [8]) and in the experiment with HLA-A*29:02 (setting [8]) were 0.538 µM, 0.605 µM and no less than 54.7 µM, respectively.

For AFLIGANYL, the dissociation constant Kd with HLA-A*01:01 [1] (setting [5]) is no less than 73 µM; with HLA-A*23:01 (setting [5]), no less than 55.3 µM; with HLA-A*24:02 (setting [5]), no less than 45.9 µM; in the experiment with HLA-A*26:01 (setting [5]) it was no less than 77.9 µM; with HLA-A*29:02 (setting [5]) it was no less than 26.6 µM; with HLA-A*30:02 (setting [5]), no less than 78.9 µM.

In the case of AIFFTTSLF, the results for the Kd in the experiment with HLA-A*23:01 (setting [9]), with HLA-A*24:02 (setting [9]) and in the experiment with HLA-A*29:02 (setting [9]) were 0.246 µM, 1.21 µM and 0.274 µM, respectively.

As to ETLPAMCNVY, the Kd is 0.415 µM with HLA-A*01:01 [1] (setting [6]); no less than 38.8 µM in the experiment with HLA-A*23:01 (setting [6]); no less than 70.3 µM with HLA-A*24:02 (setting [6]); 0.205 µM with HLA-A*26:01 (setting [6]); 4.15 µM in the experiment with HLA-A*29:02 (setting [6]); 3.66 µM with HLA-A*30:02 (setting [6]).

In the case of TCDGNTFTY, the Kd is 0.531 µM with HLA-A*01:01 [3]; 2.48 µM with HLA-A*11:01 [4]; no less than 77.8 µM with HLA-A*23:01 (setting [5]); no less than 23.9 µM in the experiment with HLA-A*24:02 (setting [5]); no less than 38.6 µM with HLA-A*26:01 (setting [5]); 0.00685 µM with HLA-A*29:02 (setting [5]). The Kd with HLA-A*30:02 (setting [5]) was determined as 0.107 µM.

For the sequence CLERWMLVA, the Kd with HLA-A*01:01 [1] (setting [9]) was 0.153 µM; with HLA-A*23:01 (setting [9]), no less than 77.7 µM; with HLA-A*24:02 (setting [9]) it was no less than 77.5 µM; with HLA-A*26:01 (setting [9]) it was no less than 77.9 µM; with HLA-A*29:02 (setting [9]) it was no less than 78.9 µM; in the experiment with HLA-A*30:02 (setting [9]), 14.9 µM.

The record behind these values is the Immune Epitope Database (IEDB).
